Experimental data taken from patent US20190284560.

Tested on: Bevacizumab (Avastin; anti-VEGF humanized monoclonal antibody) (Homo sapiens (humanized antibody)?)
Conditions: quartz crystal microbalance (AFFINIX Q8), velocity analysis; Bevacizumab immobilized on sensor; phosphate buffer (DPBS); aptamer 1.48-2.91 uM; sequence …

“CCGTGTGGTGGGGGTTGGGGGTTGTCGTTCGCCG [Bevacizumab DNA aptamer SEQ ID NO: 1]” was tested. Which Kd did it give?
Its Kd is 9.1 µM.
